Our source for the GUS activity driven by the CmCHS promoter in tobacco leaves co-infiltrated with CmbHLH2^Full and full-length CmMYB6 (untagged effectors) and GUS activity driven by the CmDFR promoter in tobacco leaves co-infiltrated with CmbHLH2^Full and full-length CmMYB6 (untagged effectors) values is publication PMC8222801.

The assay addresses CmMYB6_N3 (Chrysanthemum morifolium).

Chain of CmMYB6_N3 (Chrysanthemum morifolium) (main, as listed by the source): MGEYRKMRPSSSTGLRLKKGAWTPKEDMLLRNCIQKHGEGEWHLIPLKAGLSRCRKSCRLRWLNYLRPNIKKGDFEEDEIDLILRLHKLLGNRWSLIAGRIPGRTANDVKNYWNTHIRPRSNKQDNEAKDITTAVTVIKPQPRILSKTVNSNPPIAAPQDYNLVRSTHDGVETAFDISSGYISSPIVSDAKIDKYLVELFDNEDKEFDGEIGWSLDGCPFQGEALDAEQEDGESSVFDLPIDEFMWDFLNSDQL

“CmbHLH2^Full_L (from UniProt A0A0S3J3I7 1-613) (natural protein)” gave a GUS activity driven by the CmCHS promoter in tobacco leaves co-infiltrated with CmbHLH2^Full and full-length CmMYB6 (untagged effectors) of 5 fold; a GUS activity driven by the CmDFR promoter in tobacco leaves co-infiltrated with CmbHLH2^Full and full-length CmMYB6 (untagged effectors) of 26 fold.
